In the supplement of paper PMC10567573:

B1: DLC1 (parent)
chain: KRSWEEHVTHWMGQPFNSDDRNTA
B2: ARL6IP1 (parent)
chain: YLDPSVLSGVSCFVMFLCLADYLV

Variants of: B1
Test: protein stability index of a GFP-peptide fusion (GPS, HEK-293T) (PSI 1-6); higher = more stable
Conditions: c terminus: a fixed tail appended
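Also: lentivirally expressed fusions sorted by FACS into six bins by GFP to DsRed ratio, PSI derived from sequencing read proportions per bin multiplied by bin number.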

Protein stability index: each site, then its substitutions
M12: W 1.94, A 2.44, L 2.94, H 2.94, V 2.73, K 2.98, Q 2.78, D 2.7, Y 3.21, E 2.32, R 2.49, C 2.97, G 2.63, N 2.79, S 2.57, T 3.34, F 2.94, P 3.67, I 2.53
D20: N 2.59, K 2.51, R 2.66, S 1.91, G 2.43, V 2.02, W 1.59, A 3.41, M 1.91, T 2.75, H 2.48, P 2.76, Q 3.05, I 2.54, F 2.29, Y 1.77, E 2.87, L 2.48, C 2.19
P15: F 2.78, D 1.63, S 2.3, L 3.4, C 2.35, T 2.29, K 2.85, V 2.27, G 2.43, N 2.48, M 2.17, W 2.92, Q 2.1, A 2.95, Y 2.79, H 2.66, E 3.45, R 2.41, I 1.56
F16: W 2.35, S 3.07, G 3.14, K 2.97, V 3.34, M 2.94, L 3.55, D 2.59, A 2.54, I 2.63, R 2.27, E 3.08, P 2.68, C 2.66, Y 2.69, N 3.62, H 2.77, Q 2.41, T 2.37
N17: L 2.44, P 2.73, E 2.52, W 2.77, D 3.03, V 2.26, A 2.64, Y 2.36, H 2.73, G 2.44, T 3.4, I 2.38, M 2.15, S 2.63, F 2.77, K 2.1, Q 3.12, C 2.23, R 1.64
D19: S 2.6, T 2.4, W 2.64, M 2.88, R 2.54, P 2.73, V 1.97, Y 1.43, H 2.29, I 3.12, Q 2.65, A 2.67, F 1.85, N 2.69, G 2.25, L 2.12, K 2.61, E 2.76
Q14: Y 2.6, F 2.65, S 2.37, H 2.36, E 1.71, L 2.64, W 2.03, T 2.31, K 2.82, D 2.69, C 3.01, G 2.29, R 3.47, V 3.15, N 2.75, M 2.34, I 2.44, P 2.84, A 3.23
G13: K 2.13, M 2.44, S 2.63, A 2.53, I 2.25, E 2.61, T 2.18, D 2.19, H 2.56, Y 2.08, N 2.14, F 1.82, P 2.88, C 2.1, Q 2.44, R 2.23, L 2.73, W 1.95, V 3.04
T23: A 2.22, W 1.79, E 2.73, N 2.74, R 2.65, Q 3.27, I 2.35, D 3.26, V 2.13, F 2.13, K 2.74, G 2.69, C 3.51, L 2.08, P 2.46, S 2.26, H 2.23, Y 2.16, M 1.73
W11: R 3.29, D 2.33, T 2.49, S 2.53, E 1.57, V 3.19, F 2.7, M 2.54, A 2.97, C 2.48, G 2.69, L 2.85, Y 2.82, Q 2.12, K 3.61, N 2.26, I 3.01, H 2.95, P 3.54
N22: S 2.74, D 2.59, V 2.49, R 2.53, I 2.12, P 2.73, T 2.29, C 1.94, Y 2.09, F 2.04, L 2.06, A 1.81, E 2.56, G 2.81, Q 2.67, W 1.7, M 2.28, H 2.04, K 3.02
A24: V 3.28, K 3.54, E 3.59, G 2.97, P 2.92, M 2.09, F 2.37, S 2.67, I 2.81, Y 1.72, R 2.86, H 2.9, T 2.43, Q 3.18, C 2.32, L 2.89, D 2.82, W 2.6, N 2.23
R21: P 2.6, F 1.95, W 2.92, I 2.61, C 2.85, Q 3.07, N 3.91, M 2.27, E 2.99, S 2.9, G 3.17, T 3.08, V 3.31, D 2.89, A 2.64, K 3.32, L 3.36, Y 2.55, H 2.47
T9: M 3.48, S 2.38, P 3.54, H 3.46, Y 3.04, I 2.62, L 2.53, Q 3.6, K 3.59, W 2.67, N 3.75, F 2.11, G 3.14, R 3.1, V 2.75
H10: G 2.57, P 3.52, A 2.17, M 1.99, R 2.19, D 3.39, W 2.31, Q 2.56, F 1.92, N 2.58, V 2.16, I 1.95, C 2.92, Y 1.92, L 2.33, K 2.53, T 2.32, S 2.73, E 3.1
S18: T 3.21, R 2.1, V 2.31, D 3.1, E 2.97, K 3.12, F 2.27, I 2.61, Q 3.02, P 3.11, Y 2.26, A 3.48, L 2.03, H 2.66, W 2.01, G 2.76, C 2.34, M 2.92

Variants of: B2
Test: as above
Conditions: c terminus: a fixed tail appended

Protein stability index, by site and new letter:
L2: K 3.31, A 2.29, D 3.95, F 3, E 3.04, I 1.63, N 2.5, R 2.5, Y 2.35, T 3.75, C 2.99, Q 2.09, P 2.76, H 2.67
P4: C 3.21
Y1: R 2.81, C 3.1, M 3.37, N 4.11, A 1.59, D 2.61, H 3.89, V 2.9, I 2.63
D3: A 5.08, T 2.59, V 2.91, S 2.72, Q 3.57, R 3.64, E 1.94, H 1.69, N 3.7, I 2.83, Y 2.54, P 3.06
